From publication PMC7618002
Values belong to the substance of their own block, whether it stands above or below them.

Key:
Assay in all cases: SEC; analytical SEC of the purified protein alone; oligomeric state in solution
LnmF = target: LnmF
[1] = target: WsmD (Streptomyces sp. CB02120-2)
[2] = target: WsmE (Streptomyces sp. CB02120-2)
[3] = target: WsmR KS6 (Streptomyces sp. CB02120-2)
[4] = target: WsmS (Streptomyces sp. CB02120-2)

stoichiometry N (LnmF): 3
Substance: LnmF (enzyme)

stoichiometry N [1]: 2
Substance: WsmD (enzyme)

stoichiometry N [2]: 3
Substance: WsmE (enzyme)

stoichiometry N [3]: 2
Substance: WsmR KS6 (domain or fragment)

stoichiometry N [4]: 2
Substance: WsmS (enzyme)
